This data set is described as follows: yeast display, Sf9 membrane polyspecificity reagent, FACS + sequencing; frameworks hold sequencing errors. A digest of the protocol: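 Sorting gates, low and high (top ~1%), were placed on anti-HA fluorescence to track expression and on streptavidin fluorescence to track reagent binding. A clone's polyreactivity label is taken from the gate it came out of. The reagent was 10% biotinylated, detergent-solubilized Sf9 membrane, applied for 1 hour at 4 °C to galactose-induced yeast display cells.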
Regarding “QVQLVESGGGLVQAGGSLRLSCAASGFIFRYYAMGWYRQEPGKERELVAAISGSGGSKYYADSVKGRFTISRDNAKNNVYLQMNSLKQEDTAVYYFAKSYGSHRKIRTSFGYWGQGTQVTVSS”, the “polyreactivity (PSR sort gate)” value is reported as “high polyreactivity”. In the case of “QVQLVESGGGLVQAGGSLRLSCAASGSIFVSNAMGWSRQAPGKERELVAAITRSGGSTYYADSVKGRFTISRDNAKNTVYLQMNCLKPEDTAVYYCAAATYRYGYGYWGQGTQVTVSS” it was “high polyreactivity”. To “QVQLVESGGGLVQAGGSLRLSCAASGRIFSYYAMGWYRQAPGKERELVAVISRRGDNTYYADSVKGRFTISRDNAKNTVYLQMNSLKPEDTEVFYCAAYSWYAKDFDYWGQGTQVTVSS” belongs “high polyreactivity”; to “QGQLVESGGGLVQAGGSLRLSCAASGITFYYYAMGWYRQAPGKERELVAAINWSGTSTYYADSVKGRFTISRDNAKNTVYLQMNSLKPEDTAVYYCNAERGRSFWWAYDYWGQGTQVTVSS”, “low polyreactivity”. Regarding “QVQLEESGGGLVQAGGSLRLSCAASGITFDDYTMGWYRQAPGKERELVAAITRSGGSTYYADSVKGRFTISRDTAKITVSLQMNSLKPEDTAVYYCSRVKGRGFKNGYWGQGTKVTVSS”, the “polyreactivity (PSR sort gate)” value is “high polyreactivity”. “QVQLVESGGGLVQAGGSLRLSCAASGRTLAPYAMGWYRQAPGKARELVADIDRGGGSTYYADSVKGSFTISRDNAKNTVYLQMNSLKPEDTAVYYCNVDEPGVLVAYSLDFWGQGSQVTVSS”: the “polyreactivity (PSR sort gate)” value is listed as “low polyreactivity”.

With “QDQLVESGGGLVQAGGSLRLSCAASGSIFKRYAMGWYRQAPGKERELVAAISYSGGSTYYADSVKGRFTISRDNAKNTVYLQMNSLKPEDTAVYYCAAATYRQQWHYYWGQGTQVTVSS”, the “polyreactivity (PSR sort gate)” value is recorded as “high polyreactivity”.

For “QVQLVESGGGLVQAGVSHRLSCAASGSIYYYYAMGWYRQAPGKESELVAGITTSGGSTYYAESVKVRFTISRDNAKNTVYLQMISLKPEDNAVYYCAAYDYISSTYFLDDYWGQGTQVTVSS”, the “polyreactivity (PSR sort gate)” value is “low polyreactivity”. To “QVHLVESGGGLVQAGGSLRLSCAASGSTSNYYVKVWYGQAPGKERELVASISSGGSTNYADSVKGRFSISRDNAKNSVYLQKNSLKPEDTAVYYCARRRFTHRRYRFDFWGQGTQVTVSS” belongs “high polyreactivity”. Consider “QVHLVESGGGLVQAGVSLRLSCAASGSIFRINGMGWYRQAPGKERELVAAITRSGGSTFYADSVKGRFTISRDTAKNTVYLQMNSLKPEETAVYYCAAVWYYSTVPARYEYWGQGTQVTVSS”, for which the “polyreactivity (PSR sort gate)” value is reported as “low polyreactivity”. “QVQLVESGGGLVQAGGSLRLSCAASGRTLDKYTLGWYRQAPGKERELVASITSGGSTNYADSVKGRFTISRDNAKNTVYLQMNTLKPEDTAVYYCNKRRRVSKMGQGYDYWGQGTQVTVTS”: the “polyreactivity (PSR sort gate)” value is listed as “low polyreactivity”. On to “QVQLVESGGGLVQAGGSLRLSCAASGSTFDYNAMGWYRQAPGKERELVAAISSGSRTNYADSVKGRFTISRDNAKNTVYLQMNSLKPEDTAVYYCAAKAYFYRRTQSRFSLYYYWGQGTQVTVSS”, for which the “polyreactivity (PSR sort gate)” value is recorded as “high polyreactivity”. Turning to “QVQLVESGGGLVQAGGSLRLICAASGFIFRRYDMGWYRQAPGKERELVATITASVGSTNYADSVKGRFTISRDNAKNTVYLQMNSLKPEDTAVYYCATDIIGAIRVWDHTRMDYWGQGTQVTVSS”, the “polyreactivity (PSR sort gate)” value is recorded as “low polyreactivity”. Turning to “QVQLVESGGGLVQAGGSLRLTCAASGLTFYSNTMGWYIQAPGKERELVAAISWTGTSTYYADSVKVRFTISRDNAKNTVFLQMNSLKAEDTAVYYWNALGYARSYDSWGQGTQVTVSS”, the “polyreactivity (PSR sort gate)” value is “high polyreactivity”. In the case of “QVQLVESAGGLVQAGGSLRLTCAASGRTYFPYAMGLYRQAPGKERELVAAITWSATTTYYADSVKGRFTISRDNAKNTVYLQMISLKPEDTAVYYCNARGDYWGQGTQVTVSS” it was “low polyreactivity”; in that of “QVQLVESGGGLVQAGGSLRLSCAASGFTLYAYVMGWYRQAPGKERDLVAAISRSGGSTYYADSVKGRFTISRDNAKNTVYLQMNSLKPEDTAVYYCAAQYKRYHRLYGYWGQGTQVTVSS”, “high polyreactivity”. In the case of “QVQLVESGGGLVQAGGSLRLSCAASGSTFYDNAKGWYRPAPGKERELVAAISYSGASTYYADSVKGRFTISRDNAQNTVYLQMNSLKPEDTAVYYCSKTFYSLYWGQGTQVTVSS” it was “low polyreactivity”; in that of “QDQHVESGGGLVQAGGRLRLICAASGGNFTKNAMGWYRQAPGKERELVAGISRTGGNTYYADSVKGRFTISRDNAKNTVYLQMNSLKPDDTAVYYCNALYGGPHRLRYDYWGQGTQVTVSS”, “low polyreactivity”. To “QVQLVESGGGLVQAGGSLRLSCAASGLTFKFNAMGWYIQAPGKERELVADISFGGDDTYYSDSVKGRFTISRDNAKNTVYLQMNSQKPEDNAVYYCAAEYDTWGYSGRDYWGQGTQVTVSS” belongs “low polyreactivity”. On to “QVQLQESGGGLLQAGGTLRLSCAASGSIFGYSGMGWYRQAPGKERELVAGIDYGTITNYADSVKGRFTISRDNAKNTVYLQKYSLKPADTAVYYCATDIHSVHNHRDKHVYDYWGQGTQVTVSS”, for which the “polyreactivity (PSR sort gate)” value is reported as “low polyreactivity”. Consider “QVQLVESGGGLVQAGGSLRLSCAASGSIIYYNAMGWYRQAPAKERELVAAITGSGGSTYYADSVKGRFTISRDNAINTVYLQMNSLKPEDTAVYDCAADYSLYGWWFRNDYWGQGTQVTVSS”, for which the “polyreactivity (PSR sort gate)” value is on record as “low polyreactivity”.

As to “QVQLVESGGGLVQAGGSLRLSCAASGRIFQRYAMGWYRQAPGKERELVAAITTGGRTYYADSVKGRFTISRDNAKNTVYLQMNSLKPEDTAVYYCAARFVGSRYRFDYWGQGTQVTVSS”, the “polyreactivity (PSR sort gate)” value is listed as “high polyreactivity”.

Regarding “QVQLVESGGGLVQAGGSLRLSCAASGYTFSANADMGWYRQAPGKESELVAAITGSGGITYYADSVKGRFTISRDNAKNTVYLQMNSLKPEDTAVYYCAAAVVDAAFDYWGQGTQVTVSS”, the “polyreactivity (PSR sort gate)” value was “low polyreactivity”. For “QVQLVESGGGLVQAGGSLRLSCAASGIIFGYNVMGWYRQAPGKERELVAAISGSGSSTYYADSVKGRFTISRDNAKNTVYLQMNSLKPEDTAVYYCARQRYEYRTTYYYWGQGTQVTVSS”, the “polyreactivity (PSR sort gate)” value is listed as “high polyreactivity”. To “QVQLVESGGGLVQAGGSLRLSCAASGIIFTRYVMGWYRQAPRKERELVAAISWSGGRTYYADSVKGRFTISRDNAKNTVYLQMNSLKPEDTAVYYCAAGIYQHAGGDYWGQGTQVTVSS” belongs “high polyreactivity”; to “QVQLVESGGGVVQAGGTLRLSCAASGINFIDNTMGWYRQAPGKEREFVATISANSDGTYYADSVKRRFTISRDNAKKTVYLQMNSLKPEETAVYYWGQGTQVTVSS”, “low polyreactivity”; to “HVQLVESGGGLVQAGGSLRLSCAASGRTFFRYVMGWYRQAPGKERELVAAISRSGGSTYYADSVKGRFTISRDNAKNTFYLQMNSLKPEDTAVYYCAASAGPRASYYYWGQGTQVTVSS”, “high polyreactivity”. Take “QVQLVESGGGLVQAGGSLRLSCAAYGFTFASNVMGWYRQAPGKDRELVAAITSGASTNYADSVKGRFTISRDNAKNTVYLQMNSLKPVDTAVYYCAAGRQWYVFYEFDYWGQGTQVTVSS”: the “polyreactivity (PSR sort gate)” value is “high polyreactivity”. For the sequence “QVQLVESGGGLVQAGGSLRLSCAASGRTSPRYAMGWYRQAPGKEREWVASISGSGGRTYYADSVKGRFTISRDNAKNTVYLQMNSLKPEDTAVYYCAASTQGNYYPYKRYDYCGQGTQVTVSS”, the “polyreactivity (PSR sort gate)” value is recorded as “high polyreactivity”. As for “QVQLVESGGGLVQAGGSLRLSCAASGSTFGANAMGWYRQAPGKEREFVAAISRSGVRTYYADSVKGRFTISRDNAKNTVYLQMNSLKPEDTAVYYCAARFWYDYRHYDYWGQGTQVTVSS”, the “polyreactivity (PSR sort gate)” value is given as “low polyreactivity”.

For the origin of these results see the nanobody polyreactivity screen of Harvey et al. (2022).
